Test results reported in US11098109B2, “Single-chain variable fragment anti-CD133 antibodies and uses thereof” (REGENTS OF THE UNIVERSITY OF MINNESOTA, priority 2010, dated 2021).

Assays:
Assay type in all cases: binding
CD133 [1] = target: T1, CD133 (Homo sapiens, UniProt O43490); assay: Flow cytometry specificity test on U87, CD133-transfected U87, Caco-2 and GBM6 cells
T1 construct: endogenous in cells
T1 sequence (O43490 20-865): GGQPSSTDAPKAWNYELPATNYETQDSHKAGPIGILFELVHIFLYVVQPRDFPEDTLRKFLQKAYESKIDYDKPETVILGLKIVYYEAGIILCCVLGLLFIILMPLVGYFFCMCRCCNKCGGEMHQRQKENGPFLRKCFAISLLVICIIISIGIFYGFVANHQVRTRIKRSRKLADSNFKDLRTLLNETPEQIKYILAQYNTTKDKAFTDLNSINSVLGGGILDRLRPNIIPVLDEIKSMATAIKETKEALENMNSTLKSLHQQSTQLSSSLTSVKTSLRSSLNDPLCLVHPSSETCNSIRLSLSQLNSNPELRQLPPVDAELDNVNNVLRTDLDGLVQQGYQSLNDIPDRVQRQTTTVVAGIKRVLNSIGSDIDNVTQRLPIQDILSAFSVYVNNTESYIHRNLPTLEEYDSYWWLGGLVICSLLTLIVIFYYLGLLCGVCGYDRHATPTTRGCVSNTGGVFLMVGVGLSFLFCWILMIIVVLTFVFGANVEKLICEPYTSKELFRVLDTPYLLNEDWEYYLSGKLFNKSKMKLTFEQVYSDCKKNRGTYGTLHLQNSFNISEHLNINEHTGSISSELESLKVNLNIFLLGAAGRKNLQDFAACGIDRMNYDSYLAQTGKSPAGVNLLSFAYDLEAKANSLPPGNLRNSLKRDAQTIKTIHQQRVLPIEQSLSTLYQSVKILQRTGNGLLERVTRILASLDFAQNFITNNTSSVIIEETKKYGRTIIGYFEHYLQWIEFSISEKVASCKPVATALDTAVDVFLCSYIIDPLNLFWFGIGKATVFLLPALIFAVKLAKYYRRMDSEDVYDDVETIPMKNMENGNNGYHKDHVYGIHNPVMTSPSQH
Procedure: (§1) FIG. 3: Specificity of antibody produced by Hybridoma Clone 7. (A) Flow cytometry. Cells were incubated with primary antibody from either Hybridoma Clone 7 or 293C3 (Militenyi), followed by incubation with a labeled secondary antibody, and then analyzed by flow cytometry. Antibody from the newly developed anti-CD133 Hybridoma Clone 7 (open black histogram) stains very specifically the CD133-overexpressing cells, Caco-2 (iii), GBM6 (iv) and U87 cells transfected with CD133 (ii) but not CD133 negative U87 cells (i). Immunostaining using the monoclonal antibody produced by Hybridoma Clone 7 is compared to clone 293C3 (open grey histogram). Isotype control is represented by solid grey histogram. (B) Tunicamycin mediated glycosylation inhibition. Caco-2 cells were treated with increasing doses of tunicamycin (2.5, 5, 10, 20 μg/ml) for 3 days. DMSO treated cells or untreated cells served as controls. Cells were lysed and then analyzed by Western blotting using the monoclonal antibody produced by Hybridoma Clone 7 or GAPDH antibodies.
CD133-IRES GFP or CMV GFP constructs were transfected into U87 cells using FuGENE HD transfection reagent according to the manufacturer's instructions. Briefly, cells were plated in a 10 cm dish. Twelve hours later, 10 μg of the pDNA was diluted in serum-free growth DMEM and mixed with 40 μl of the transfection reagent. Following incubation for 15 minutes, the transfection mix was added to the cells. Forty-eight hours later, cells were harvested using non-enzymatic cell dissociation buffer (Sigma-Aldrich Corp., St. Louis, Mo.) for flow cytometry.
Primary human glioblastoma GBM6 cells, U87, or Caco-2 cells were washed three times and suspended in 100 μl of PBS. […] Cells were further incubated with 10 μl of anti-mouse hylite 647 (1:40 dilution; American Qualex, San Clemente, Calif.) for 30 minutes at 4° C., washed three times, and analyzed by flow cytometry.

human prominin-1 = target: T2, human prominin-1 (Homo sapiens, UniProt O43490, DEL381-611); assay: ELISA of hybridoma supernatant on recombinant C-prominin-1; settings: supernatant at 1:1, 1:10, 1:100, 1:500 dilution
T2 construct: His-tag (6xHis) (N); made in house
T2 sequence (O43490 with tags, fused parts or gaps DEL381-611): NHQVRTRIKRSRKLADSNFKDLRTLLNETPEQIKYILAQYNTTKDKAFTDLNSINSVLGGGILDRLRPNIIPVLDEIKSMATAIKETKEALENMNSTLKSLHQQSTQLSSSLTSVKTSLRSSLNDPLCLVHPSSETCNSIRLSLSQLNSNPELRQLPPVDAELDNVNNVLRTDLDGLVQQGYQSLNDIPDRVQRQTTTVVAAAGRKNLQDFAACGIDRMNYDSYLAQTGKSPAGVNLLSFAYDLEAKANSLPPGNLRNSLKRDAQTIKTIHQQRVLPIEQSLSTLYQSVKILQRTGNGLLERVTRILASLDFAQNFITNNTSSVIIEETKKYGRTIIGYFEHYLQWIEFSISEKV
Procedure: The hybridoma cells were cultured in DMEM with 10% FBS. When the cells were confluent, they were grown for additional 2-3 days. The supernatant was harvested for ELISA. The recombinant C-prominin-1 protein was coated at a 1:1000 dilution in 96-well plate and incubated at 4° C. ovemight. The coating buffer was discarded, the protein was washed 1 time, 300 μl/well of 5% milk buffer was added, and incubated at 4° C. overnight.
The hybridoma supernatant was diluted with 5% milk buffer at 1:1, 1:10, 1:100, 1:500 and 50 μL/well was added and incubated at 37° C. for one hour. The wells were washed four times, and 50 μL/well goat anti-mouse secondary antibody-HOURP conjugate was added at a dilution of 1:2000 and incubated at 37° C. for one hour. Washed four times, and added 50 μL/well substrate.

CD133 [2] = target: T1, CD133; assay: Tunicamycin glycosylation inhibition, Western blot of Caco-2 lysates; settings: Caco-2 cells treated with tunicamycin
Procedure: as §1
Caco-2 cells were seeded in 6-well plates and treated with 2.5 μg/ml-20 μg/ml tunicarmycin or vehicle (medium containing 0.1% DMSO) for three days. […] The lysates were centrifuged to remove cell debris and then analyzed by western blotting using either Hybridoma Clone 7 or anti-GAPDH (Sigma-Aldrich Corp., St. Louis, Mo.) as primary antibodies.

B1: Hybridoma Clone 7: monoclonal antibody produced by Hybridoma Clone 7 that specifically binds to human CD133 (antibody, V domains shown)
VL: DIVLSQSPAIMSASPGEKVTISCSASSSVSYMYWYQQKPGSSPKPWIYRTSNLASGVPARFSGSGSGTSYSLTISSMEAEDAATYYCQQYHSYPPTFGAGTKLELK
VH: LEVKLVESGPELKKPGETVKISCKASGYTFTDYSMHWVNQAPGKGLKWMGWINTETGEPSYADDFKGRFAFSLETSASTAYLQINNLKNEDTATYFCATDYGDYFDYWGQGTTLTVSS
flow cytometry staining of non-transfected U87 cells (CD133 [1]; CD133^low/- U87 cells): did not appreciably stain
flow cytometry staining of cells that endogenously express CD133 (CD133 [1]; Caco-2 and GBM6 cells): able to immunostain
flow cytometry staining of CD133-transfected U87 cells (CD133 [1]; U87 transfected with human CD133 cDNA): labeled CD133-transfected cells
reaction of supernatant with human prominin-1 in ELISA (human prominin-1): binds its antigen with high specificity and affinity
epitope recognized (glycosylated or not) (CD133 [2]): specifically binds to an non-glycosylated epitope
